Experiment [1] deals with HLA-A*68:02. Put plainly: IEDB peptide-MHC binding, purified MHC/competitive/fluorescence; filed as Kd, often an IC50 or EC50 that approximates it; ≥ and ≤ were set here for values at or beyond the usual limits of such assays.
The target of experiment [2] is HLA-A*26:01. Described as above.
Experiment [3] has as its target HLA-A*26:02. Described as above. Conditions: source organism: Zaire ebolavirus.
Another experiment deals with HLA-A*01:01. The experiment in a line: IEDB peptide-MHC binding, purified MHC/direct/fluorescence; filed as Kd, often an IC50 or EC50 that approximates it; ≥ and ≤ were set here for values at or beyond the usual limits of such assays.
For another experiment, the target named is HLA-B*07:02. Described as above.
The next experiment concerns the target HLA-B*08:03. Described as above. Conditions: source organism: Ravn virus - Ravn, Kenya, 1987.
A further experiment has as its target HLA-B*58:01. The description is as above.
The target in experiment [4] is HLA-B*48:01. The experiment is described as above. To be noted: source organism: Ebola virus - Mayinga, Zaire, 1976.
Experiment [5] concerns the target HLA-B*46:01. Described as above.
The target of the next experiment is HLA-B*40:01. The experiment is described as above.
In experiment [6] the target is HLA-B*15:01. The experiment is described as above.
The target of experiment [7] is HLA-B*57:01. The description is as above.
The target of experiment [8] is HLA-B*39:01. The description is as above.
In experiment [9] the target is HLA-B*18:01. The experiment is described as above.
Experiment [10] deals with HLA-A*02:01. The description is as above.
A further experiment has as its target HLA-B*38:01. The description is as above.
Another experiment concerns the target HLA-A*29:02. The experiment in a line: IEDB peptide-MHC binding, purified MHC/competitive/fluorescence; filed as Kd, often an IC50 or EC50 that approximates it; ≥ and ≤ were set here for values at or beyond the usual limits of such assays.
Another experiment addresses HLA-A*02:12. The description is as above. Conditions: source organism: Giardia lamblia ATCC 50803.
For the next experiment, the target named is HLA-A*02:19. Described as above.
The target in the next experiment is HLA-A*24:03. Described as above.
In another experiment the target is HLA-B*27:03. The experiment is described as above.
In experiment [11] the target is HLA-B*46:01. The experiment is described as above.
The target of another experiment is HLA-B*51:01. Described as above.
Experiment [12] addresses HLA-B*15:01. Described as above.
The next experiment has as its target HLA-A*03:01. Described as above.
The next experiment addresses HLA-A*23:01. Described as above.
The target in experiment [13] is HLA-B*57:01. Described as above.
In experiment [14] the target is HLA-B*39:01. Described as above. Conditions: source organism: Giardia lamblia ATCC 50803.
In experiment [15] the target is HLA-B*18:01. The experiment is described as above.
The target of experiment [16] is HLA-A*02:01. Described as above.
Experiment [17] addresses HLA-B*48:01. The description is as above. To be noted: source organism: Rabbitpox virus.
In a further experiment the target is HLA-A*30:01. Described as above. Conditions: source organism: Rabbitpox virus.
Experiment [18] has as its target HLA-A*69:01. The experiment in a line: IEDB peptide-MHC binding, purified MHC/direct/fluorescence; filed as Kd, often an IC50 or EC50 that approximates it; ≥ and ≤ were set here for values at or beyond the usual limits of such assays. To be noted: source organism: Aracatuba virus.
Experiment [19] concerns the target HLA-B*15:17. The experiment is described as above. To be noted: source organism: Aracatuba virus.
Experiment [20] has as its target HLA-A*68:02. The experiment is described as above. To be noted: source organism: Aracatuba virus.
In the next experiment the target is HLA-B*08:02. Described as above. Conditions: source organism: Variola virus.
For a further experiment, the target named is HLA-B*08:01. The description is as above. To be noted: source organism: Variola virus.
Experiment [21] deals with HLA-A*26:01. The description is as above. Conditions: source organism: Variola virus.
The target of experiment [22] is HLA-A*26:02. The experiment is described as above. To be noted: source organism: Variola virus.
The target in the next experiment is HLA-B*27:05. The description is as above. Conditions: source organism: Aracatuba virus.
For experiment [23], the target named is HLA-A*69:01. Put plainly: IEDB peptide-MHC binding, purified MHC/competitive/fluorescence; filed as Kd, often an IC50 or EC50 that approximates it; ≥ and ≤ were set here for values at or beyond the usual limits of such assays. Conditions: source organism: Bacillus anthracis str. A0488.
Experiment [24] deals with HLA-B*15:17. The experiment is described as above. To be noted: source organism: Bacillus anthracis str. A0488.
A further experiment deals with HLA-A*02:16. The experiment is described as above. Conditions: source organism: Bacillus anthracis str. A0488.
The mark [25] stands for this setting: source organism: Zaire ebolavirus.
The mark [26] stands for this setting: source organism: Ebola virus - Mayinga, Zaire, 1976.
Where [27] appears, read: source organism: Giardia lamblia ATCC 50803.
Setting [28] is: source organism: Aracatuba virus.
Where [29] appears, read: source organism: Bacillus anthracis str. A0488.

Some results are limits rather than exact numbers.

As for SRTPSGKRL, the Kd with HLA-A*68:02 [1] (setting [25]) was 3.11 µM; with HLA-A*26:01 [2] (setting [25]), 2.12 µM; with HLA-A*26:02 [3] it was 2.8 µM; with HLA-A*01:01 (setting [26]), at least 20 µM; in the experiment with HLA-B*07:02 (setting [26]), at least 20 µM; in the experiment with HLA-B*08:03, at least 20 µM. Further, the dissociation constant Kd with HLA-B*58:01 (setting [26]), in the experiment with HLA-B*48:01 [4], with HLA-B*46:01 [5] (setting [26]), in the experiment with HLA-B*40:01 (setting [26]), with HLA-B*15:01 [6] (setting [26]) and with HLA-B*57:01 [7] (setting [26]) was at least 20 µM throughout. Also, the equilibrium dissociation constant (Kd) is at least 20 µM in the experiment with HLA-B*39:01 [8] (setting [26]); at least 20 µM in the experiment with HLA-B*18:01 [9] (setting [26]); at least 20 µM in the experiment with HLA-A*02:01 [10] (setting [26]); at least 20 µM with HLA-B*38:01 (source organism: Ravn virus - Ravn, Kenya, 1987).

For the sequence STTTCEAGV, the dissociation constant (Kd) with HLA-A*29:02 (setting [27]) was at least 20 µM; with HLA-A*02:12, 0.284 µM; with HLA-A*02:19 (setting [27]), at least 20 µM; with HLA-A*24:03 (setting [27]) it was at least 20 µM; in the experiment with HLA-B*27:03 (setting [27]), at least 20 µM; in the experiment with HLA-B*46:01 [11] (setting [27]) it was at least 20 µM. The Kd in the experiment with HLA-B*51:01 (setting [27]), with HLA-B*15:01 [12] (setting [27]), with HLA-A*03:01 (setting [27]), with HLA-A*23:01 (setting [27]), with HLA-A*26:01 [2] (setting [27]) and in the experiment with HLA-B*57:01 [13] (setting [27]) was at least 20 µM each time. Besides, the Kd in the experiment with HLA-B*39:01 [14], with HLA-B*18:01 [15] (setting [27]) and in the experiment with HLA-A*02:01 [16] (setting [27]) was at least 20 µM throughout.

Turning to YKEPNSIIL, the Kd in the experiment with HLA-B*48:01 [17] is 0.224 µM; with HLA-A*30:01, at least 20 µM; in the experiment with HLA-A*69:01 [18] it was at least 20 µM; with HLA-A*01:01 (setting [28]) it was at least 20 µM; in the experiment with HLA-B*15:17 [19], at least 20 µM; in the experiment with HLA-A*68:02 [20] it was at least 20 µM. The Kd in the experiment with HLA-B*07:02 (setting [28]), in the experiment with HLA-B*58:01 (setting [28]), in the experiment with HLA-B*08:02, with HLA-B*46:01 [5] (setting [28]), with HLA-B*40:01 (setting [28]) and with HLA-B*15:01 [6] (setting [28]) was at least 20 µM throughout. The Kd with HLA-B*08:01 was at least 20 µM; with HLA-A*26:01 [21] it was at least 20 µM; in the experiment with HLA-A*26:02 [22], at least 20 µM; with HLA-B*27:05, at least 20 µM; with HLA-B*57:01 [7] (setting [28]) it was at least 20 µM; with HLA-B*39:01 [8] (setting [28]) it was 0.0305 µM. Besides, the equilibrium dissociation constant (Kd) in the experiment with HLA-B*18:01 [9] (setting [28]) is at least 20 µM; in the experiment with HLA-A*02:01 [10] (setting [28]), at least 20 µM; in the experiment with HLA-B*38:01 (source organism: Variola virus) it was 0.617 µM.

For KQGDVFYTA, the Kd in the experiment with HLA-A*69:01 [23], with HLA-A*29:02 (setting [29]), with HLA-B*15:17 [24], with HLA-A*68:02 [1] (setting [29]), with HLA-A*02:19 (setting [29]) and with HLA-A*24:03 (setting [29]) was at least 20 µM each time. The Kd with HLA-A*02:16 is 0.0514 µM; with HLA-B*27:03 (setting [29]), at least 20 µM; with HLA-B*46:01 [11] (setting [29]), at least 20 µM; with HLA-B*51:01 (setting [29]), at least 20 µM; with HLA-B*15:01 [12] (setting [29]), at least 20 µM; with HLA-A*03:01 (setting [29]), at least 20 µM. Also, the Kd with HLA-A*23:01 (setting [29]), with HLA-A*26:01 [2] (setting [29]), in the experiment with HLA-B*57:01 [13] (setting [29]), with HLA-B*18:01 [15] (setting [29]) and with HLA-A*02:01 [16] (setting [29]) was at least 20 µM each time.
